The labels stand for the following.
B2: 6xHis-BRAF kinase domain, wild type (amino acids 442-723 with 16 solubilizing mutations) (domain or fragment, UniProt P15056 442-723, looked up)
chain: GRRDSSDDWEIPDGQITVGQRIGSGSFGTVYKGKWHGDVAVKMLNVTAPTPQQLQAFKNEVGVLRKTRHVNILLFMGYSTKPQLAIVTQWCEGSSLYHHLHASETKFEMKKLIDIARQTARGMDYLHAKSIIHRDLKSNNIFLHEDNTVKIGDFGLATVKSRWSGSHQFEQLSGSILWMAPEVIRMQDSNPYSFQSDVYAFGIVLYELMTGQLPYSNINNRDQIIEMVGRGSLSPDLSKVRSNCPKRMKRLMAECLKKKRDERPSFPRILAEIEELARELSG
modifications: biotin (Sulfo-NHS-biotin, 50 molar excess) in the pull-downs on streptavidin beads
notes: BRAF kinase domain, amino acids 442-723, with 16 solubilizing mutations; Designed as in Cope et al., 2020; Amine-coupled to a carboxyl sensor in OpenSPR, biotinylated in pull-downs; also called KD; BRAF-KD; source: E. coli BL21 codon +, purified (cobalt resin, SEC); not shown: 6xHis, N-terminal, kept

Holding throughout (experiment): SPR; OpenSPR; BRAF-KD WT or D594G amine-coupled to a carboxyl sensor (~6000 RUs), BRAF NTs flowed at 30 µL/min; 20 mM HEPES pH 7.4, 150 mM NaCl, 5% glycerol, 0.005% Tween-20, 1% BSA; 1:1 fit
Common to all, as to details: both partners purified
(Surface plasmon resonance follows binding to a sensor surface in real time, without labels.)

The target of experiment [1] is B2.
The target in experiment [2] is T1, untagged BRAF NT1 (His/MBP-tag removed by TEV protease) (UniProt P15056 1-288).
T1 construct: BRAF residues 1-288 (BSR, RBD and CRD); also called untagged NT1; source: E. coli BL21 codon +, purified, tag cleaved with TEV protease; not shown: 6xHis, N-terminal, cleaved; MBP, N-terminal, cleaved

The target of experiment [3] is T2, His/MBP-BRAF NT1 (aa 1-288) (UniProt P15056 1-288).
T2 construct: BRAF residues 1-288 (BSR, RBD and CRD); Cloned in the pET28-MBP vector; also called His/MBP-NT1; source: E. coli BL21 codon +, purified (Ni-NTA, SEC); not shown: 6xHis, N-terminal, kept; MBP, N-terminal, kept

Our source for the Kd values is article PMC10752582 (eLife, 2023).

B1: BRAF-CRD only protein NT5 (residues 234-288) (domain or fragment, UniProt P15056 234-288, looked up)
chain: THNFVRKTFFTLAFCDFCRKLLFQGFRCQTCGYKFHQRCSTEVPLMCVNYDQLDL
notes: BRAF residues 234-288 (CRD only); also called BRAF NT5; source: E. coli BL21 codon +, purified
B1: in experiment [1], the Kd (in general, the concentration at which binding is half-saturated) is greater than 6000 nM.

For B2, the Kd in experiment [2] stood at 13 nM; in experiment [3] it was 11 nM.
